From paper PMC4937323
Read-outs that look alike come from different tables or passages of the source.

What was measured:
[1] = target: RPA (wild-type, biotinylated on RPA3) (Homo sapiens, UniProt P27694;P15927;P35244 1-616;1-270;1-121); experiment: EMSA
Aro2 [2] = target: T1, Aro2 (Homo sapiens, UniProt P27694;P15927;P35244 1-616;1-270;1-121, F269A;F386A); experiment: smTIRFM
Aro2 [3] = target: T1, Aro2; experiment: smTIRFM; remark: listed apart in the source
AroA = AroA (Homo sapiens, UniProt P27694;P15927;P35244 1-616;1-270;1-121, F238A;F269A); experiment: smTIRFM
Chain of AroA (P27694 whole entry F238A/F269A, chain 1 of 3): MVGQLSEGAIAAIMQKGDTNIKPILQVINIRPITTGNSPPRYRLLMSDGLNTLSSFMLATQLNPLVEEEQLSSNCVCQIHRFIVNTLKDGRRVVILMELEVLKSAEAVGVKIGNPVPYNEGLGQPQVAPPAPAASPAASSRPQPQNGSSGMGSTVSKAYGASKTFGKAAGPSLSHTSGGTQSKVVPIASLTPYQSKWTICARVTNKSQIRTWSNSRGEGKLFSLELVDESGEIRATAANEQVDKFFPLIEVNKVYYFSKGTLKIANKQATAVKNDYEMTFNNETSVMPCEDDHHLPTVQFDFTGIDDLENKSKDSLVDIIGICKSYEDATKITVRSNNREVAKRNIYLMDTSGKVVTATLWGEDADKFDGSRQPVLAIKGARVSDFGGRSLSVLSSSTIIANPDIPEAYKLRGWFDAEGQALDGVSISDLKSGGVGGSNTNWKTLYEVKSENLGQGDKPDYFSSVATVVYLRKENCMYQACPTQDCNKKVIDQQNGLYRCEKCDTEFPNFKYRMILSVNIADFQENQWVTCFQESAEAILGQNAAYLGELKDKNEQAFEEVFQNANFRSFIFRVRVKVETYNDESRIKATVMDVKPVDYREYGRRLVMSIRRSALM
Chain of AroA (P15927 whole entry, chain 2 of 3): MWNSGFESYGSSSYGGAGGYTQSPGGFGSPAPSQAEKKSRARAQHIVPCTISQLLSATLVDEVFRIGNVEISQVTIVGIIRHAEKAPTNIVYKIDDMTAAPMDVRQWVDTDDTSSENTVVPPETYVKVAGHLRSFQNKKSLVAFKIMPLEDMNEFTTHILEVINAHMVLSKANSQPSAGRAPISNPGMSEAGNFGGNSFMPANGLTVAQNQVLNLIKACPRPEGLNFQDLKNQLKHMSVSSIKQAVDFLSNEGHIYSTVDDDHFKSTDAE
Chain of AroA (P35244 whole entry, chain 3 of 3): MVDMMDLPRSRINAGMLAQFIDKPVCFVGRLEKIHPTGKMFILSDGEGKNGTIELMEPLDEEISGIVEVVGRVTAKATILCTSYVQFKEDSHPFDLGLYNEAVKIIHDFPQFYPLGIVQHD

AroB = AroB (Homo sapiens, UniProt P27694;P15927;P35244 1-616;1-270;1-121, W361A;F386A); experiment: smTIRFM
Chain of AroB (P27694 whole entry W361A/F386A, chain 1 of 3): as the sequence (P27694 whole entry F238A/F269A, chain 1 of 3) above, with A238F, A269F, W361A, F386A counted along it
Chain of AroB (P15927 whole entry, chain 2 of 3): as the sequence (P15927 whole entry, chain 2 of 3) above
Chain of AroB (P35244 whole entry, chain 3 of 3): as the sequence (P35244 whole entry, chain 3 of 3) above

T1 sequence (P27694 whole entry F269A/F386A, chain 1 of 3): as the sequence (P27694 whole entry F238A/F269A, chain 1 of 3) above, with A238F, F386A counted along it
T1 sequence (P15927 whole entry, chain 2 of 3): as the sequence (P15927 whole entry, chain 2 of 3) above
T1 sequence (P35244 whole entry, chain 3 of 3): as the sequence (P35244 whole entry, chain 3 of 3) above
Chain of RPA (wild-type, biotinylated on RPA3) (P27694 whole entry, chain 1 of 3): as the sequence (P27694 whole entry F238A/F269A, chain 1 of 3) above, with A238F, A269F counted along it
Chain of RPA (wild-type, biotinylated on RPA3) (P15927 whole entry, chain 2 of 3): as the sequence (P15927 whole entry, chain 2 of 3) above
Chain of RPA (wild-type, biotinylated on RPA3) (P35244 whole entry, chain 3 of 3): as the sequence (P35244 whole entry, chain 3 of 3) above

B1: 20 nt Bubble DNA (mixed)
DNA 1: CCCTAGATACCAGTAAGCCTAAGGCCGGATCTCGGGCCATCCATGTACGC
DNA 2: GCGTACATGGATGGCTTAGAGCTTAATTCCGAATCTACTGGTATCTAGGG
binding result [1]: binds

TTTTTTTTTTTTTTTTTTTT (ssDNA) [dT20]
binding result (Aro2 [2]): binds

TTTTTTTTTTTTTTT (ssDNA) [dT15]
binding result (Aro2 [3]): no binding | binding result (AroA): no binding | binding result (AroB): no binding
